# Assay results reported in patent US20200362024A1, “BIOLOGICAL MATERIALS AND USES THEREOF” (IMPERIAL INNOVATIONS LIMITED, priority 2009, published 2020).
# B1: FBG: recombinant fibrinogen-like globe, 227 amino acid globular domain at the C terminal of tenascin-C (protein)
# chain: GLLYPFPKDCSQAMLNGDTTSGLYTIYLNGDKAEALEVFCDMTSDGGGWIVFLRRKNGRENFYQNWKAYAAGFGDRREEFWLGLDNLNKITAQGQYELRVDLRDHGETAFAVYDKFSVGDAKTRYKLKVEGYSGTAGDSMAYHNGRSFSTFDKDTDSAITNCALSYKGAFWYRNCHRVNLMGRYGDNNHSQGVNWFHWKGHEHSIQFAEMKLRPSNFRNLEGRRKRA
# Legend:
# [1] = system: RA synovial membrane cells; experiment: Cytokine synthesis in RA synovial membrane cells stimulated with FBG; format: cell-based, human; conditions: FBG 1.0-0.01 μM, 24 h, over spontaneous production
# From the text: RA membrane cells (representing a mixed population of all synovial cell types) were isolated from synovial membranes obtained from patients undergoing joint replacement surgery as previously described (Brennan (1989)). RA synovial fibroblasts were isolated from the mixed population of RA membrane cells as previously described (Brennan (1989)). The study was approved by the local Trust ethics committee (Riverside NHS Research Committee), and waste tissue (synovium after joint replacement surgery) was obtained only after receiving signed informed consent from the patient and anonymyzing the tissue to protect patient identity.
# Immediately after isolation, RA membrane cells and macrophages were cultured at 1×10^5 cells/well in RPMI 1640 containing 10% (v/v) FBS and 100 U/ml (Units/ml) penicillin/streptomycin in 96-well tissue culture plates for 24 hours before stimulation. […]
# (§1) Supernatants were subsequently examined for the presence of the cytokines TNF-α, IL-6, and IL-8 by enzyme-linked immunosorbent assay (ELISA) according to the manufacturer's instructions. Absorbance was read on a spectrophotometric ELISA plate reader (Labsystems Multiscan Biochromic, Vantaa, Finland) and analyzed using the Ascent software program (Thermo Labsystems, Altrincham, UK).
# [2] = system: TLR2 or TLR4 deficient embryonic fibroblasts and bone marrow derived macrophages; experiment: Cytokine synthesis in embryonic fibroblasts and macrophages from TLR2 or TLR4 deficient mice; format: cell-based, mouse; conditions: 24 h
# From the text: Homozygous TLR2 and TLR4 deficient mice on a C57BL/6 background (an inbred strain of mice with a black coat) were obtained from B&K Universal (Hull, UK) Hoshino (1999) and Takeuchi (1999). Homozygous MyD88 deficient mice on a C57BL/6 background were provided by the Sanger Institute (Cambridge, UK). Age matched congenic inbred wild type C57B/L6 mice were obtained from Charles River (Margate, UK). For isolation of mouse embryo fibroblasts one female aged 8-10 weeks was mated with two males aged 8-10 weeks. For isolation of bone marrow derived macrophages mice were female and between 10-12 weeks of age at the time of experimentation.
# MEFs express high levels of mRNA of all 9 murine TLRs and are specifically and highly responsive to TLR ligand activation. […] MEFs were isolated from d13 embryos harvested from age-matched, pregnant female wild type, TLR2, TLR4 and null mice (as described in Todaro (1963)). Fibroblasts were cultured at 2×10^4 cells/well in DMEM containing 10% (v/v) FBS and 100 U/ml penicillin/streptomycin in 96-well tissue culture plates for 24 hours before stimulation.
# BMDMs were derived by aspirating the femurs of age matched female wild type, TLR2 and TLR4 null mice as described in Butler (1999)) and culturing the cells for 7 days in DMEM, 20% (v/v) FBS, 10 ml/L (v/v) antibiotic-antimycotic solution PSA, 50 μM Mercaptoethanol and 10 ng/ml M-CSF. Macrophages were then cultured at 1×10^5 cells/well in DMEM, 20% (v/v) FBS, 10 ml/L (v/v) antibiotic-antimycotic solution PSA, 50 μM β-Mercaptoethanol in 96-well tissue culture plates for 24 hours before stimulation.
# Cells were incubated for 24 hours at 37° C. with the indicated doses of tenascin-C and recombinant tenascin-C fragments (1.0 μM-1.0 nM). Cells were also stimulated where indicated with LPS (1 ng/ml for human macrophages, 10 ng/ml for human fibroblasts, RA membrane cells and HEKs, 100 ng/ml for MEFS and BMDMs and 10 ng/ml for HEKS), PAM3 (10 ng/ml for human macrophages, human fibroblasts, and HEKs, 100 ng/ml for MEFs and BMDMs), murine IL-1 (5 ng/ml for MEFS) and murine TNF-α (100 ng/ml for MEFS). Unless specifically stated otherwise rough LPS was used for in vitro studies.
# as §1
# [3] = system: knee joint of wild type mice; experiment: Intra-articular injection of FBG into the knee joint of wild type mice; format: in vivo
# Method: Wild type mice were anesthetized by intraperitoneal injection of 150 μl of Hypnorm diluted 1:10 in sterile water and then injected with 100 ng, 1 or 3 μg FBG in 10 μl of sterile PBS into the right knee joint using a sterile 33-gauge microcannula. Control mice received an injection of 10 μl PBS alone or were not injected.
# On days 3 and 7, mice were euthanized, the knee joints were excised and fixed in 10% (volume/volume) buffered formalin, decalcified, with 10% EDTA and processed to paraffin.
# Coronal tissue sections (4 μm) were cut at 7 depths throughout the joint; 80 μm apart and stained with hematoxylin and eosin or Safranin-O to assess joint pathology.
# Inflammation (the influx of inflammatory cells into synovium (infiltrate) and the joint cavity (exudates), was graded using an arbitrary scale from 0 (no inflammation) to 3 (severe inflammation). Chondrocyte death was determined as the percentage of cartilage area containing empty lacunae in relation to the total area. Cartilage surface erosion was determined as the amount of cartilage lost in relation to the total cartilage area. Bone destruction was determined in 10 different areas of the total knee joint section. Destruction was graded on a scale of 0 (no damage) to 3 (complete loss of bone structure). Histological analysis was performed by an investigator who was blinded to the experimental groups. The mean score for each animal in an experimental group was calculated by averaging the histopathologic scores in at least 5 section depths per joint.
molecule,measurement,setting,value
B1,"synthesis of IL-6, IL-8 and TNF-α in RA synovial membranes",[1],further enhanced
same,cytokine synthesis in cells from TLR2 deficient mice,[2],unaffected
same,cytokine synthesis in cells from TLR4 deficient mice,[2],does not stimulate
same,joint histology,[3]; 100 ng FBG intra-articular,No inflammation or proteoglycan loss
same,joint histology,"[3]; 1 μg FBG intra-articular, 3 days","inflammatory cell infiltration (FIG. 6f), mild synovitis, pannus formation (FIG. 6g) and proteoglycan loss (FIG. 6h) was observed"
same,histological quantification: cartilage surface erosion and bone damage,"[3]; 1 μg FBG, 3 days (FIG. 6i)",modest amount
same,histological quantification: cellular infiltrate and exudate and chondrocyte death,"[3]; 1 μg FBG, 3 days (FIG. 6i)",high levels
same,joint histology,[3]; 3 μg FBG intra-articular,A similar response
same,joint inflammation,"[3]; intra-articular 100 ng, 1 or 3 μg",transient and dose dependent stimulation of joint inflammation
